Data reported in paper PMC10573690 (International Journal of Molecular Sciences, 2023).

B1: quilizumab (antibody, V domains shown)
VH: EVQLVESGGGLVQPGGSLRLSCAASGFTFSDYGIAWVRQAPGKGLEWVAFISDLAYTIYYADTVTGRFTISRDNSKNTLYLQMNSLRAEDTAVYYCARDNWDAMDYWGQGTLVTVSS
VL: DIQMTQSPSSLSASVGDRVTITCRSSQSLVHNNANTYLHWYQQKPGKAPKLLIYKVSNRFSGVPSRFSGSGSGTDFTLTISSLQPEDFATYYCSQNTLVPWTFGQGTKVEIK
B2: 15cl12, chimeric antibody with human constant domains (antibody, V domains shown)
VH: QIQLQQSGAELVKPGASVKLSCKASGYTFTSYDINWVRQRPERGLDWIGWIFPGDGSSKYNENFKGKATLTTDKSSNTAYIHLSRLTSEDSAVYFCARWGKTFDYWGQGTTLTVSS
VL: DIVMSQSPSSLAVSVGEKVTMSCKSSQSLLYSRDQKNYLAWFQQKPGQSPKLLIYWASARESGVPDRFTGSGSGTDFTLTITSLKTEDLAVYYCQQFYNYPRTFGGGTKLEIK
B3: ligelizumab (antibody, V domains shown)
VH: QVQLVQSGAEVMKPGSSVKVSCKASGYTFSWYWLEWVRQAPGHGLEWMGEIDPGTFTTNYNEKFKARVTFTADTSTSTAYMELSSLRSEDTAVYYCARFSHFSGSNYDYFDYWGQGTLVTVSS
VL: EIVMTQSPATLSVSPGERATLSCRASQSIGTNIHWYQQKPGQAPRLLIYYASESISGIPARFSGSGSGTEFTLTISSLQSEDFAVYYCQQSWSWPTTFGGGTKVEIK
notes: whole heavy chain, IgG1 format; whole light chain; IgG1; made in house; source: HEK293-6E, transfected, purified from supernatant (Protein A)
B4: 15cl12_L328C coupled with MC-Val-Cit-PAB-MMAE (antibody-drug conjugate) (antibody, V domains shown)
VH: B2 VH
VL: B2 VL

How the values were obtained:
[1] = biological target: T1, IgE-Fc-B-cell receptor construct (3×FLAG tag-Cε2-Cε3-Cε4-EMPD-transmembrane-intracellular domain) on Edox … (Homo sapiens, UniProt P01854, strain); assay: cell-based or functional assay
Target sequence in this assay (P01854 whole entry, looked up, change not shown, the tested form may be a part): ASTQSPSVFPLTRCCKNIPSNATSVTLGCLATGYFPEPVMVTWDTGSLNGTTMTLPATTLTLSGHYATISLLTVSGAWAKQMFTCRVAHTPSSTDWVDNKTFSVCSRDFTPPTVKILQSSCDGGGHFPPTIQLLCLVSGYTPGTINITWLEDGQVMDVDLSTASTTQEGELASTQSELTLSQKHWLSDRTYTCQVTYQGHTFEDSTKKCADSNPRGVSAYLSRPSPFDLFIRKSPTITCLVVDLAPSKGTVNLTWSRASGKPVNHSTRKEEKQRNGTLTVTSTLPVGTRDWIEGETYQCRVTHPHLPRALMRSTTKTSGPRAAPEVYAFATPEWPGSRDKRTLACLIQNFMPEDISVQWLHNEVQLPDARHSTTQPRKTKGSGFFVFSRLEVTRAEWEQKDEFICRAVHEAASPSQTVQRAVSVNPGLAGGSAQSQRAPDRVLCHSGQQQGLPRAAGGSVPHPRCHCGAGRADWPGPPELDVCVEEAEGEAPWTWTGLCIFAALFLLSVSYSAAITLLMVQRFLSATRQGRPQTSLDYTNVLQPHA

[2] = biological target: T1, IgE-Fc-B-cell receptor construct …; assay: flow cytometry on cells; doxycycline-induced Edox cells, antibodies in graded concentrations, 30 min on ice in 2% BSA-PBS; detection with anti-human kappa light chain-FITC; conditions: one partner purified
Target sequence in this assay (P01854 429-546, change not shown): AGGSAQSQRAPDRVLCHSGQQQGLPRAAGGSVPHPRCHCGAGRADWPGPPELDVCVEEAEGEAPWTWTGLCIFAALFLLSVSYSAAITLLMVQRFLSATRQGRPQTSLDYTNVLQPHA

[3] = biological target: T2, biotinylated EMPD-characteristic peptide (Homo sapiens, synthetic peptide of the …, biotin on the C-terminal lysine (K-biotin)); assay: BLI; biotinylated EMPD peptide on streptavidin sensors (5 µg/mL); antibodies in two-fold dilutions from 250 nM; PBS with 1× Kinetics buffer, 25 °C; steady state value; conditions: both partners purified
T2 construct: added C-terminal lysine that carries the biotin; Held on streptavidin sensors or plates through the biotin; also called synthetic peptide ligand representing a section of the human EMPD; model peptide; source: synthetic peptide; bought: Fisher Scientific
T2 chain: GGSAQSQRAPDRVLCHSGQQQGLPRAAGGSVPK

[4] = biological target: T2, biotinylated EMPD-characteristic peptide; assay: ELISA; biotinylated EMPD peptide on streptavidin plate (30 nM); antibodies in 3-fold dilutions from 45 nM in 2% BSA-PBS, RT; detection with anti-human kappa chain-HRP; conditions: both partners purified

| Binder | decrease of surface Fcε (anti-FLAG staining, flow cytometry) on Edox cells after 4 h at 37 °C against incubation on ice [1] [%] | EC50 [2] [nM] | Kd [3] [nM] | EC50 [4] [nM] |
| --- | --- | --- | --- | --- |
| B1 | ~70 |  |  |  |
| B2 | > 80 | 4 | 11 |  |
| B3 | > 80 | ~0.1 |  |  |
| B4 |  | ~8 | 7.5 | 0.23 |
